Data reported in article PMC11263391, “Molecular insights into degron recognition by CRL5^ASB7 ubiquitin ligase” (Nature Communications, 2024).

Legend:
[1] = target: ASB7-Elongin B-Elongin C ternary complex (wild-type ASB7, residues 11-318) (human) (UniProt Q9H672); assay: ITC; peptide in the syringe titrated into ASB7-Elongin B/C in the cell; MicroCal PEAQ-ITC, 16 °C, 20 mM Tris-HCl pH 7.5, 150 mM NaCl; 39–156 μM protein, 0.8–4 mM peptide; repeated three times, mean ± SD
[2] = target: ASB7 Phe182 alanine mutant in complex with Elongin B/C (human) (UniProt Q9H672); assay: ITC; peptide (0.8–4 mM) titrated into the ASB7 complex (39–156 µM); 16 °C; 20 mM Tris-HCl pH 7.5, 150 mM NaCl; MicroCal PEAQ-ITC
[3] = target: ASB7 Arg185-to-alanine mutant in complex with Elongin B/C (human) (UniProt Q9H672); assay: as above
[4] = target: ASB7 R160A mutant in complex with Elongin B/C (human) (UniProt Q9H672); assay: as above
[5] = target: ASB7 with Trp118 in ANK3 or Phe82 in ANK4 replaced with alanine; assay: as above
[6] = target: ASB7 D116A mutant in complex with Elongin B/C (human) (UniProt Q9H672); assay: as above

Substance: LZTS1 degron peptide, 22 residues (…)
- Kd [1]: 600 nM
- stoichiometry N [1]: 0.75

Substance: LZTS1-degron 23-residue peptide
- fold decrease in binding affinity against wild-type ASB7 [2]: 3 fold
- fold decrease in binding affinity against wild-type ASB7 [3]: 4 fold
- fold decrease in binding affinity against wild-type ASB7 [4]: 3 fold
- fold decrease in binding affinity against wild-type ASB7 [5]: 10 to 30 fold
- fold reduction in binding against wild-type ASB7 [6]: 7 fold
